This is an account of results in patent US20220119789A1.

The target in the test is Trx-VL(NP)-GUS(IV-5)KW (Escherichia coli). Briefly: cell-based or functional assay.

Take PentaHis antibody (QIAGEN): the average S/B ratio in 11 minutes after the beginning of reaction (GUS activity) was 13 and the average S/B ratio in 20 minutes after the beginning of reaction (GUS activity) was 42.3.
